The results in this text go back to patent US20110206616A1.

This assay concerns the target SNAP 25 (endogenous, rat neuronal cells) (rat) (UniProt P60881). Kind of assay: cell-based or functional assay.
Sequence of UniProt P60881 (P60881 whole entry): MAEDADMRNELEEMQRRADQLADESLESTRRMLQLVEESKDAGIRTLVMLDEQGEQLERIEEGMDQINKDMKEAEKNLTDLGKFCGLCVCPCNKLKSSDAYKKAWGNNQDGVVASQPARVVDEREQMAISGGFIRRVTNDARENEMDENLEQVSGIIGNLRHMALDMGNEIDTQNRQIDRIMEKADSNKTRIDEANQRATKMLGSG

As for “wt BoNT/A (wild type botulinum neurotoxin serotype A) (from UniProt P0DPI1 2-1296)”, the intracellular SNAP 25 cleavage (concentration of wt toxin used) stood at 0.5 nM.
